Data reported in patent US20170218066A1 (SORRENTO THERAPEUTICS, published 2017).
Substitutions are numbered along the chain they refer to.

B1: H6B1L-EV (antibody, V domains shown)
VH: QMQLVQSGAEVKKPGSSVKVSCKASGGTFSSYAYSWVRQAPGQGLEWMGGIIPSFGTANYAQKFQGRVTITADESTSTAYMELSSLRSEDTAVYYCARGPIVATITPLDYWGQGTLVTVSS
VL: SYVLMQPPSVSVAPGKTATIACGGENIGRKTVHWYQQKPGQAPVLVIYYDSDRPSGIPERFSGSNSGNTATLTISRVEAGDEADYYCLVWDSSSDHRIFGGGTKLTVL
notes: Fully human antibody of an IgG class, light chain variant of H6B1L
B2: H6B1L (antibody, V domains shown)
VH: B1 VH
VL: B1 VL with V3E
notes: Fully human antibody of an IgG class; also called parent antibody H6B1L; wild type antibody H6B1L
B3: H6B1L-EM (antibody, V domains shown)
VH: B1 VH
VL: B1 VL with M5T
notes: as for B1

molecular target: T1, human PD-L1 (human, UniProt Q9NZQ7 19-238, limits assumed); assay: Biacore (SPR)
T1 construct: also called Programmed death ligand 1; B7-H1
T1 sequence (Q9NZQ7 19-238 limits assumed): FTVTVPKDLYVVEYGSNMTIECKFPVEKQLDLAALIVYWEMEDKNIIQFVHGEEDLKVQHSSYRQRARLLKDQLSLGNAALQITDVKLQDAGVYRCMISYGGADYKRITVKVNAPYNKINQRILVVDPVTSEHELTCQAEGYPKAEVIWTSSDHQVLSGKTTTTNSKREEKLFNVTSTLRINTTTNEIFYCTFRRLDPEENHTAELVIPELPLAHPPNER

Q: B1 was tested. Which Ka did it give?
A: 5.48e+08 M⁻¹

Q: What about the Kd of the same binder?
A: 1.82 nM

Q: What about the koff of the same binder?
A: 0.00287 s⁻¹

Q: What about the kon of the same binder?
A: 1.57e+06 M⁻¹ s⁻¹

Q: With B2 as the binder, how does the Ka read?
A: 5.4e+08 M⁻¹

Q: And the Kd?
A: 1.85 nM

Q: What about the koff of the same binder?
A: 0.0028 s⁻¹

Q: What about the kon of the same binder?
A: 1.51e+06 M⁻¹ s⁻¹

Q: With B3 as the binder, how does the Ka read?
A: 6.44e+08 M⁻¹

Q: And the Kd?
A: 1.55 nM

Q: What about the koff of the same binder?
A: 0.00214 s⁻¹

Q: And the kon?
A: 1.38e+06 M⁻¹ s⁻¹
